Data as given in patent US20140094416A1, “SPARC ANGIOGENIC DOMAIN AND METHODS OF USE” (Abraxis BioScience, LLC, priority 2009, published 2014).

Key:
[1] = system: PC3 model; experiment: Tumor volume in mice, PC3 model; assay type: in vivo
Experimental: Tumor volume was measured in mice being treated with Abraxane alone (15 mg/kg administered daily for five days), Abraxane and Sutent (the Sutent administered at 30 mg/kg daily for 8 weeks), Abraxane and exogenous SPARC (the SPARC at […] administered twice a week for eight weeks), and finally, Abraxane, Sutent and SPARC together.
FIG. 1 depicts a graph plotting tumor volume (mm^3) against time (days) for these test conditions.

[2] = system: HUVEC; experiment: HUVEC sprout formation bead assay; assay type: cell-based; details: addition of rhSPARC
Experimental: (§1) Recombinant human SPARC and genetically engineered variants were expressed and purified using HEK 293 cells maintained in hollow fiber bio-reactors. The angiogenic activity of rhSPARC and its variants was evaluated using a HUVEC tube formation assay and a HUVEC sprout formation bead assay.
(§2) In the HUVEC tube formation assay, rhSPARC was pro-angiogenic at 10 μg/mL and anti-angiogenic at 100 μg/mL. […] Additional rhSPARC variants with deletions and single/double amino acid substitutions tested in these assays included: Q3 deletion (BIO2), an inversion of the putative angiogenic domain (BIO5), a double K>Q substitution in the proposed angiogenic domain (BIO11), the genetic ablation of the putative catephsin K recognition sites (BIO8), and a proteolytic degradation product of rhSPARC. End terminal amino acid analysis indicated the angiogenic activity is localized to SEQ ID NO: 1.

[3] = system: HUVEC; experiment: HUVEC (3-D) tube formation assay; assay type: cell-based
Experimental: as §1, §2
FIG. 4 depicts the results of a HUVEC 3-D tube formation assay conducted with wild type SPARC and SPARC-D. The angiogenic behavior of wild type SPARC, as described in the previous example, can be seen in the graph; the angiogenic behavior increases as the concentration approaches 10 ug/ml and drops off as it approaches 100 ug/ml.

CCN(CC)CCNC(=O)c1c(C)[nH]c(/C=C2\C(=O)Nc3ccc(F)cc32)c1C [Sutent®, reference compound]
efficacy of the SPARC/Abraxane combination (tumor volume) ([1]; Sutent 30 mg/kg daily for 8 weeks added to SPARC and Abraxane): markedly improved
decrease in tumor volume ([1]; Sutent 30 mg/kg daily for 8 weeks with Abraxane, versus Abraxane alone): far greater decrease in tumor volume

B1: SPARC: Secreted Protein, Acidic, Rich in Cysteines; recombinant human SPARC expressed and purified using HEK 293 cells (protein, listed as Homo sapiens)
chain: APQQEALPDETEVVEETVAEVTEVSVGANPVQVEVGEFDDGAEETEEEVVAENPCQNHHCKHGKVCELDENNTPMCVCQDPTSCPAPIGEFEKVCSNDNKTFDSSCHFFATKCTLEGTKKGHKLHLDYIGPCKYIPPCLDSELTEFPLRMRDWLKNVLVTLYERDEDNNLLTEKQKLRVKKIHENEKRLEAGDHPVELLARDFEKNYNMYIFPVHWQFGQLDQHPIDGYLSH
tumor volume ([1]; exogenous SPARC 0.2 mg/ms twice a week for eight weeks with Abraxane, versus Abraxane alone): tumor volume is slightly greater
effect on synergy of Abraxane and Sutent (tumor volume) ([1]; exogenous SPARC along with Abraxane and Sutent): negates some of the synergistic affect
blood vessel maturity in sprout formation [2]: more mature blood vessels well supported by pericytes
angiogenic activity ([3]; 10 μg/mL, listed as rhSPARC): pro-angiogenic
angiogenic activity ([3]; 10 μg/mL, listed as wild type SPARC): increases
angiogenic activity ([3]; 100 μg/mL, listed as rhSPARC): anti-angiogenic
angiogenic activity ([3]; 100 μg/mL, listed as wild type SPARC): drops off
